Results as given in PMC7533053, “Improving transgene expression and CRISPR‐Cas9 efficiency with molecular engineering‐based molecules”.

Tests used:
β-catenin [1] = biological target: T1, β-catenin (UniProt P35222 1-781); assay: SPR; stronger than ANAM-β; KD shown only in figure; SPR Biacore X100, CM5 chip, protein immobilized by amine coupling; RNA injected 1.5 min at 5 μL/min, six concentrations 4.1 nM-1 μM; running buffer, pH and temperature not stated
β-catenin [2] = biological target: T1, β-catenin; assay: SPR; KD shown only in figure; SPR Biacore X100, CM5 chip, protein immobilized by amine coupling; RNA injected 1.5 min at 5 μL/min, six concentrations 4.1 nM-1 μM; running buffer, pH and temperature not stated

T1 sequence (P35222 whole entry): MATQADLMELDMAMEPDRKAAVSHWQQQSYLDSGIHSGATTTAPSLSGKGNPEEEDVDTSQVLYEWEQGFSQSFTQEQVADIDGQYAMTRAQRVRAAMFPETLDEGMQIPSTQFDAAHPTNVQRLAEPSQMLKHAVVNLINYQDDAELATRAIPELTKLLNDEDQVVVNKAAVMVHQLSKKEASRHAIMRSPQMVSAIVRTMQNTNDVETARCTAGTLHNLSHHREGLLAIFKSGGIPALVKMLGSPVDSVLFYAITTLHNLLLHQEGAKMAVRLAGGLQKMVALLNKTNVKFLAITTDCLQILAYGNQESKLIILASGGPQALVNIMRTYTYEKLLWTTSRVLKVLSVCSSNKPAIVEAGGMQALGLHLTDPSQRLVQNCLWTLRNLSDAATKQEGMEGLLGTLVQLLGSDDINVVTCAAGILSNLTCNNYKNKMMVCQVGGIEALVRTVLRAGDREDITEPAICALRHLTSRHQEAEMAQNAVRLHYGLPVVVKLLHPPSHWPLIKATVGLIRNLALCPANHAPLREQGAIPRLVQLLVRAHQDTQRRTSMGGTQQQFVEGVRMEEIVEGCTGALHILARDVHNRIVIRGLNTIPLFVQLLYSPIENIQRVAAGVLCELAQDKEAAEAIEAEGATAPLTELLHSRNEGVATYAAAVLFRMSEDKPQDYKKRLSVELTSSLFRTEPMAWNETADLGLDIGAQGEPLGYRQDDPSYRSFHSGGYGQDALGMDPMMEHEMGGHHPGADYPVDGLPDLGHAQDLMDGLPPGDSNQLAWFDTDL

Row | Binder | binding result (β-catenin [1]) | binding result (β-catenin [2])
1 | ANAM-2Sβ (structured_RNA) RNA: GGGAGCGGCCGAUCUAUGGACGCUAUAGGCACACCGGAUACUUUAACGAUUGGCCGCCUGCUGCGGGCCGAUCUAUGGACGCUAUAGGCACACCGGAUACUUUAACGAUUGGCCCGCAGCAGUUCCC | binds | 
2 | AGGCCGAUCUAUGGACGCUAUAGGCACACCGGAUACUUUAACGAUUGGCU (structured_RNA) [ANAM-β] |  | binds
